Here are results for 41 sequences from the nanobody polyreactivity screen of Harvey et al. (2022).

The nature of this series: yeast display, Sf9 membrane polyspecificity reagent, FACS + sequencing; frameworks hold sequencing errors. The method, boiled down:
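Galactose-induced (36–48 hours) yeast carrying a synthetic nanobody display library were exposed to 10% biotinylated, detergent-solubilized Sf9 membrane reagent at 4 °C for 1 hour. FACS followed streptavidin microbead enrichment, using low and high (top ~1%) gates for expression (anti-HA) and reagent binding (streptavidin). Colony PCR, MiSeq 2 × 250 sequencing and CDR-length filtering followed. Labels for polyreactivity reflect the gate of origin.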
On to “QVQLVESGGGLVQAGGSLRLSCAASGRIFWYYAMGWYRQAPGKERELVASIRWGGGNTYYADSVKGRFTISRDNAKNTVYLQMNSLKPEDTAVYYCAKSKVSPSGDFYYWGQGTQVTVSS”, for which the “polyreactivity (PSR sort gate)” value was “high polyreactivity”.

For the sequence “QVQLVESGGGLVQAGGSLRLSCAASGRIFWYYVMGWYRQAPGKEREFVASISSGGSTYYADSVKGRFTISRDNAKNTVYLQMNSLKPEDTAVYYCNAYVYGQRVWYDYWGQGTQVTVSS”, the “polyreactivity (PSR sort gate)” value is given as “high polyreactivity”.

For the sequence “QVQLVESGGGLVQAGGSLRLSCAASGRIFYANAMGWYRQAPGKERELVAAISSGGSTYYADSVKGRFTISRDNAKNTVYLQMNSLKPEDTAVYYCAKDTGSRTDSWTVWHDYWGQGTQVTVSS”, the “polyreactivity (PSR sort gate)” value is “low polyreactivity”.

With “QVQLVESGGGLVQAGGSLRLSCAASGRIFYANSMGWYRQAPGKERELVASISARGGYTYYADSVKGRFTISRDTAKNTVYLQMNSLKPEDTAVYYCAAEYLAVSGYWYAYWGQGTQVTVSS”, the “polyreactivity (PSR sort gate)” value is on record as “high polyreactivity”.

“QVQLVESGGGLVQAGGSLRLSCAASGRIFYANTMGWYRKATGKERELVAAISSGGSTTYADSVKGRFTISRENAKNTVYLQMNSLKPEDPAVYYCATNTWYHYQRMYYWGQGTQVTVSS”: the “polyreactivity (PSR sort gate)” value was “high polyreactivity”.

For the sequence “QVQLVESGGGLVQAGGSLRLSCAASGRIFYAYAMGWYRQAPGKERELVATITGIGGSTYADSVKGRFTISRDNAKNTVYLQMNSLKPEDTAVYYCNAAKWLTSGGLDYWGQGTQVTVSS”, the “polyreactivity (PSR sort gate)” value is reported as “high polyreactivity”.

Regarding “QVQLVESGGGLVQAGGSLRLSCAASGRIFYDYTMGWYRQAPVKERELVATITSGGNTNYADSVKGRFTISRDNAKNTVYLQMNSLKPEDTEVYYCNADFGYWWDGSRYDYWGQGTQVTVSA”, the “polyreactivity (PSR sort gate)” value is “low polyreactivity”.

“QVQLVESGGGLVQAGGSLRLSCAASGRIFYFNAMGWYRQAPGKERELVAAMSWTGGSTYYADSVKGRFTISRDTAKNTVYLQMNSLKPEDTAVYYCAADRALSISLYPIASFDYWGQGTQVTVSS”: the “polyreactivity (PSR sort gate)” value is “low polyreactivity”.

For the sequence “QVQLVESGGGLVQAGGSLRLSCAASGRIFYFNARGWYRQAPGKERELVAAITSGGSTYYADSVKGRFTISRDNAKNTVYLQMNSLKPEDTAVYYCATDWPHWRYVYWFDYWGQGTQVTVSS”, the “polyreactivity (PSR sort gate)” value was “low polyreactivity”.

Turning to “QVQLVESGGGLVQAGGSLRLSCAASGRIFYFYAMGWYRQAPGKEMELVAAISTSGGSTYYADSVKGRFTISRDNAKNTVYLQMNSLKPEDTAVYYCNADGYQSRWYYYNYDYWGQGTQVTVSS”, the “polyreactivity (PSR sort gate)” value is “low polyreactivity”.

For “QVQLVESGGGLVQAGGSLRLSCAASGRIFYFYAMGWYRQAPGKERELVAAISRRGGTTNYADSVKGRFTISRDNAKNTVYLQMNSLKPEDTAVYYCAADYQSVGGAEYDYWGQGTQVTVSS”, the “polyreactivity (PSR sort gate)” value is on record as “high polyreactivity”.

As to “QVQLVESGGGLVQAGGSLRLSCAASGRIFYFYPMGWYRQAPGKERELVAAISTSGGSTYYADSVKGRFTISRDNAKNTVYLQMNSLKPEDTAVYYCAARFRYYVSEYDYWGQGTQVTVSS”, the “polyreactivity (PSR sort gate)” value is reported as “low polyreactivity”.

On to “QVQLVESGGGLVQAGGSLRLSCAASGRIFYGKAMGWYRQAPGKERELVAGITTSGGGTYYADSVKGRFTISRDNAKNTVYLKMNSLKPEDTAVYYCAAKYRRYRDIQDGGYWGQGTQVTVSS”, for which the “polyreactivity (PSR sort gate)” value was “low polyreactivity”.

Take “QVQLVESGGGLVQAGGSLRLSCAASGRIFYGNAMGWYRQAPGKERELVAAITRGVSTYYADSVKGRFTISRDNAKNTVYLQMNSLKPEDTAVYYCAKDRRVRMDSWGQGTQVTVSS”: the “polyreactivity (PSR sort gate)” value was “low polyreactivity”.

As to “QVQLVESGGGLVQAGGSLRLSCAASGRIFYGNTMGWSRQAPGKERELVAAISLRGGSTYYADSVKGRFTISRDTAKNTVSLQMNSLKPEDTAVYYCAATGGRGPRRYYWGQGTQVTVSS”, the “polyreactivity (PSR sort gate)” value is recorded as “high polyreactivity”.

“QVQLVESGGGLVQAGGSLRLSCAASGRIFYGNTMGWYRQAPGKERELVAAISRSGGSTYYADSVKGRFTISRDNAKNTVYLQMNSLKPEDTAVYYCNARYYRKYDYWGQGTQVTVSS”: the “polyreactivity (PSR sort gate)” value was “high polyreactivity”.

On to “QVQLVESGGGLVQAGGSLRLSCAASGRIFYGYAMGWYRQAPGKDRELVATISRSGARTHYADSVKGRFTISRDNAKNTVYLQMNSLKQEDTAVYYCAADVYLSRYEKYGYWGQGTQVTVSS”, for which the “polyreactivity (PSR sort gate)” value is reported as “high polyreactivity”.

“QVQLVESGGGLVQAGGSLRLSCAASGRIFYGYAMGWYRQAPGKEREFVAAITVSAGSTYYADSVKGRFTISRDNAKNTVYLQMNSLKPEDTAVYYCAAKRYVYPSYRFDYWGKGTQVTVSS”: the “polyreactivity (PSR sort gate)” value is on record as “low polyreactivity”.

On to “QVQLVESGGGLVQAGGSLRLSCAASGRIFYGYAMGWYRQAPGKERELVAAITRGGSTYYADSVKGRFTISRDNAKNTVYLQMNSLKPEDTAVYYCAAVIYSYRSYREYGYWGQGTQVTVSS”, for which the “polyreactivity (PSR sort gate)” value is on record as “high polyreactivity”.

For the sequence “QVQLVESGGGLVQAGGSLRLSCAASGRIFYGYAMGWYRQAPGKERELVAAITSRGTSTYYADSVKGRFTISRDTAKNTVYLQMNSLKPEDTAVYYCNAAYGRSFYSKVFSYNYWGQGTQVTVSS”, the “polyreactivity (PSR sort gate)” value is “high polyreactivity”.

In the case of “QVQLVESGGGLVQAGGSLRLSCAASGRIFYGYAMGWYRQAPGKERELVASISRRGSSTYYADSVKGRFTISRDNAKNTVYLQMNSLKPEDTAVYYCAKYTVQYAISHYDYWGQGTQVTVSS”, the “polyreactivity (PSR sort gate)” value was “high polyreactivity”.

As for “QVQLVESGGGLVQAGGSLRLSCAASGRIFYGYAMGWYRQAPGKERELVASITVSRTSTYYADSVKGRFTISRDNAKNTVYLQMNSLKPEDTAVYYCAVGDGFEYDWGQGTQVTVSS”, the “polyreactivity (PSR sort gate)” value is “low polyreactivity”.

Take “QVQLVESGGGLVQAGGSLRLSCAASGRIFYGYTMGWYRPAPGKERELVAAISRYGGSTYYADSVKGRFTISRDNAKKTVYLQMNSLKPEDTAVYYCNAVYSRGYVIKPYDYWGQGTQVTVSS”: the “polyreactivity (PSR sort gate)” value is reported as “high polyreactivity”.

Regarding “QVQLVESGGGLVQAGGSLRLSCAASGRIFYGYTMGWYRQAPGKERELVAAITWSGVSTYADSVKGRFTISRDNAKNTVYLQMNSLKPEDTAVYYCNADPIYGKRWRYYYWGQGTQVTVSS”, the “polyreactivity (PSR sort gate)” value is recorded as “high polyreactivity”.

With “QVQLVESGGGLVQAGGSLRLSCAASGRIFYHNAMGWYRQAPGKERELVAVISWSGTRTYYADSVKGRFTISRDNAKNTVYLQMNSLKPEDTAVYYFNVEPYYTSYWIYPYIYTYDYWGQGTQVTVSS”, the “polyreactivity (PSR sort gate)” value is “high polyreactivity”.

As for “QVQLVESGGGLVQAGGSLRLSCAASGRIFYHYAMGWYRQPPGKESELVAAITWSGDSTYYADSVKGRFTISRDNAQNTVYLQMNSLKPEDTAVSYCATSSPYGVRRYSRGSWGQGTQVTVSS”, the “polyreactivity (PSR sort gate)” value is recorded as “high polyreactivity”.

Consider “QVQLVESGGGLVQAGGSLRLSCAASGRIFYINAMGWYIQAPGKERELVASITGSGGRTYYADSVKGRFTISRDNAKNTVYLQMNSLKPEDTAVYYCNADLYVGYLYYLYDYWGQGTQVTVSS”, for which the “polyreactivity (PSR sort gate)” value is “low polyreactivity”.

On to “QVQLVESGGGLVQAGGSLRLSCAASGRIFYINAMGWYRQAPGTERELVAAITEGGVSTYYADSVKGRFTSSRDNAKNTVYLQMNSLKPEDTAVYYCNTTGGPDGIVIYEYWGQGTQVTVSS”, for which the “polyreactivity (PSR sort gate)” value is reported as “low polyreactivity”.

Take “QVQLVESGGGLVQAGGSLRLSCAASGRIFYIYAMGWFRQAPGKERELVAAITNGGSTNYADSVKGRFTISRDNAKNTVYLQMNSLKPEDTAVYYCAASVGTYAYARTVYRYDYWGQGTQVTVSS”: the “polyreactivity (PSR sort gate)” value was “low polyreactivity”.

With “QVQLVESGGGLVQAGGSLRLSCAASGRIFYIYTMGWYRPAPGKEREFVAGINWNGGSTYYADSVKGRFTISRDNAKNTVYLQMNSLKPEDTAVYYCNADQYWDRYYYWGQGTQVTVSS”, the “polyreactivity (PSR sort gate)” value was “low polyreactivity”.

As to “QVQLVESGGGLVQAGGSLRLSCAASGRIFYKNVMVWYRQAPGKERELVAAISTSTGRTYYADSVKGRFTISRDNAKNTVYLEMNSLKPEDTAVYYCNAVRGHTNGVLYRYDYWGQGTQVTVSS”, the “polyreactivity (PSR sort gate)” value is listed as “high polyreactivity”.

On to “QVQLVESGGGLVQAGGSLRLSCAASGRIFYLNAMGWYRQAPGKERELVAAISGSTGSTYYADSVKGRFTISRDNAKNTVYLQMNSLKPEDTAVYYCNAGGVYDEFNYWGQGTQVTVSS”, for which the “polyreactivity (PSR sort gate)” value was “low polyreactivity”.

In the case of “QVQLVESGGGLVQAGGSLRLSCAASGRIFYLYGMGWYRQAPGKERELVAGITGSGGNTYYADSVKGRFTISRDNAMNTVYLQMNSLKPEDTAVYYCIARFRARPRMGYWGQGTQVTLSS”, the “polyreactivity (PSR sort gate)” value is given as “high polyreactivity”.

With “QVQLVESGGGLVQAGGSLRLSCAASGRIFYLYTMGWYRQAPGKEREFSRYYADSVKGRFTISRDNAKNTVYLQMNCLKPEDTAVYSCAAADHPPVWYGYWGQGTHVTVSS”, the “polyreactivity (PSR sort gate)” value is reported as “low polyreactivity”.

Consider “QVQLVESGGGLVQAGGSLRLSCAASGRIFYNNAMGWYRQAPGKERELVATISRGGSTNYADSVKGRFTISRDNAKNTVYLQMNSLKPEDTAVYYCAAVTTRSYGYEYWGQGTQVTVSS”, for which the “polyreactivity (PSR sort gate)” value is “low polyreactivity”.

Turning to “QVQLVESGGGLVQAGGSLRLSCAASGRIFYNSVMGWYRQAPGKERELVAAISSSGGSTYYADSVKGRFTISRDNAKNTVYLQMNSLKPEDTAVYYCATTRRVPGEYWGQGTQVTVSS”, the “polyreactivity (PSR sort gate)” value is reported as “high polyreactivity”.

With “QVQLVESGGGLVQAGGSLRLSCAASGRIFYNYAMGWYRQAPGKERELVAAISGSGGSTYYADSVKGRFTISRDNAKNTVYLQMNSLKPEDTAVYYCNADTVYTRTAPYDYWGQGSQVTVSS”, the “polyreactivity (PSR sort gate)” value was “low polyreactivity”.

Consider “QVQLVESGGGLVQAGGSLRLSCAASGRIFYNYAMGWYRQAPGKERELVASINFSGTRTYYADSVKGRFTISRDNAKNTVYLQMNSLKPEDTAVYYCAARQAHGYYYWGQGTQVTVSS”, for which the “polyreactivity (PSR sort gate)” value is reported as “high polyreactivity”.

Turning to “QVQLVESGGGLVQAGGSLRLSCAASGRIFYPNAMGWYRQAPGKERELVAAITGRGGITYYADSVKGRFTISRDNAKNTVYLQMNSLKPEDTAVYYCNAAAYYPTNYGGYLFEYWGQGTQVTVSS”, the “polyreactivity (PSR sort gate)” value is reported as “low polyreactivity”.

Turning to “QVQLVESGGGLVQAGGSLRLSCAASGRIFYPNAMGWYRQAPGKERELVAGISSGGSTYYADSVKGRFTISRDNAKNTVYLQMNSLKPEDTAVYYCAARVYAHTSRRFLKYDYWGQGTQVTVSS”, the “polyreactivity (PSR sort gate)” value is “high polyreactivity”.

In the case of “QVQLVESGGGLVQAGGSLRLSCAASGRIFYPYAMGLYRQAPGKEREFVADISSAGSTYYADSVKGRFTISRDNAKNTVYLQMNSLKPEDTAVYYCAADRTSGAYYFRFLYDRDYWGQGTQVTVSS”, the “polyreactivity (PSR sort gate)” value is “low polyreactivity”.
